Assay results reported in IntAct's records for PubMed 30902834.

B1: Protein-arginine N-acetylglucosaminyltransferase SseK3 (Salmonella typhimurium (strain SL1344)), P0DUJ7 (parent)
chain: MFSRVRGFLSCQNYSHTATPAITLPSSGSANFAGVEYPLLPLDQHTPLLFQWFERNPSRFGENQIPIINTQQNPYLNNIINAAIIEKERTIGVLVDGNFSAGQKKALAKLEKQYENIKVIYNSDLDYSMYDKKLSDIYLENIAKIEAQPANVRDEYLLGEIKKSLNEVLKNNPEESLVSSHDKRLGHVRFDFYRNLFLLKGSNAFLEAGKHGCHHLQPGGGCIYLDADMLLTGKLGTLYLPDGIAVHVSRKGNSMSLENGIIAVNRSEHPALKKGLEIMHSKPYGDPYIDGVCGGLRHYFNCSIRHNYEEFCNFIEFKHEHIFMDTSSLTISSWR
partner: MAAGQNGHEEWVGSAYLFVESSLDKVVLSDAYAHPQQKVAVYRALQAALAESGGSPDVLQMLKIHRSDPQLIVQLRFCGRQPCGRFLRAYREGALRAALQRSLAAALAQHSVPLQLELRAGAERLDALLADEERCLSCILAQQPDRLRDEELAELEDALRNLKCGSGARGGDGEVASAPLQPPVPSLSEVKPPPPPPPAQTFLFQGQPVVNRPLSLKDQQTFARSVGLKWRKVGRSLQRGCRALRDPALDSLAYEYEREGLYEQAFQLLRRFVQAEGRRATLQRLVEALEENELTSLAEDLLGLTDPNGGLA
B2: Protein-arginine N-acetylglucosaminyltransferase SseK3 (Salmonella typhimurium (strain SL1344)), P0DUJ7 (parent)
chain: B1 chain

Variants of: B1
Conditions: with tradd_human TRADD

Row | Variant | effect of a mutation on the interaction
1 | E258A | disrupting interaction

Variants of: B2
Conditions: with tr10b_human TNFRSF10B

Row | Variant | effect of a mutation on the interaction
2 | E258A | disrupting interaction
